{"source": "patent US20080241867", "molecular_target": "hybrid GFP construct containing the protease cleavage sequence SVPSGCG (SEQ ID NO:21) followed by histidine residues", "data": [{"protein": "Papain (protein) IPEYVDWRQKGAVTPVKNQGSCGSCWAFSAVVTIEGIIKIRTGNLNEYSEQELLDCDRRSYGCNGGYPWSALQLVAQYGIHYRNTYPYEGVQRYCRSREKGPYAAKTDGVRQVQPYNEGALLYSIANQPVSVVLEAAGKDFQLYRGGIFVGPCGNKVDHAVAAVGYGPNYILIKNSWGTGWGENGYIRIKRGTGNSYGVCGLYTSSFYPVKN", "values": [{"measurement": "% GFP Released (60 minutes, 37° C.)", "value": 97, "unit": "%"}, {"measurement": "Micrograms of GFP Released by Protease (overnight, IMAC beads)", "value": 244, "unit": "µg"}, {"measurement": "averaged GFP signal (instrument signal times dilution factor, four readings)", "value": "papain yielded an averaged (over four readings) GFP signal of 282,000"}, {"measurement": "fluorescence units of eluant diluted 20-fold", "value": "fluorescence units of 400, 400, and 390, respectively"}, {"measurement": "µg GFP Released by Protease (60 minutes, 37° C.)", "value": 109, "unit": "µg"}]}, {"protein": "Proteinase K (protein) AAQTNAPWGLARISSTSPGTSTYYYDESAGQGSCVYVIDTGIEASHPEFEGRAQMVKTYYYSSRDGNGHGTHCAGTVGSRTYGVAKKTQLFGVKVLDDNGSGQYSTIIAGMDFVASDKNNRNCPKGVVASLSLGGGYSSSVNSAAARLQSSGVMVAVAAGNNNADARNYSPASEPSVCTVGASDRYDRRSSFSNYGSVLDIFGPGTSILSTWIGGSTRSISGTSMATPHVAGLAAYLMTLGKTTAASACRYIADTANKGDLSNIPFGTVNLLAYNNYQA", "values": [{"measurement": "Micrograms of GFP Released by Protease (overnight, IMAC beads)", "value": 94, "unit": "µg"}]}, {"protein": "Purified Bromelain (protein) AVPQSIDWRDYGAVTSVKNQNPCGACWAFAAIATVESIYKIKKGILEPLSEQQVLDCAKGYGCKGGWEFRAFEFIISNKGVASGAIYPYKAAKGTCKTDGVPNSAYITGYARVPRNNESSMMYAVSKQPITVAVDANANFQYYKSGVFNGPCGTSLNHAVTAIGYGQDSIIYPKKWGAKWGEAGYIRMARDVSSSSGICGIAIDPLYPTLEE", "values": [{"measurement": "% GFP Released (60 minutes, 37° C.)", "value": 98, "unit": "%"}, {"measurement": "Micrograms of GFP Released by Protease (overnight, IMAC beads)", "value": 35, "unit": "µg"}, {"measurement": "averaged GFP signal (instrument signal times dilution factor, four readings)", "value": "bromelain yielded a averaged (over four readings) GFP signal of 281,500"}, {"measurement": "fluorescence units of eluant diluted 20-fold", "value": "fluorescence units of 400, 400, and 390, respectively"}, {"measurement": "µg GFP Released by Protease (60 minutes, 37° C.)", "value": 109, "unit": "µg"}]}]}
